According to paper PMC4004224 (Journal of the American Chemical Society, 2014):

Biological target: T1, recombinant human Rnase inhibitor (human, UniProt P13489 1-461)
T1 sequence (looked up): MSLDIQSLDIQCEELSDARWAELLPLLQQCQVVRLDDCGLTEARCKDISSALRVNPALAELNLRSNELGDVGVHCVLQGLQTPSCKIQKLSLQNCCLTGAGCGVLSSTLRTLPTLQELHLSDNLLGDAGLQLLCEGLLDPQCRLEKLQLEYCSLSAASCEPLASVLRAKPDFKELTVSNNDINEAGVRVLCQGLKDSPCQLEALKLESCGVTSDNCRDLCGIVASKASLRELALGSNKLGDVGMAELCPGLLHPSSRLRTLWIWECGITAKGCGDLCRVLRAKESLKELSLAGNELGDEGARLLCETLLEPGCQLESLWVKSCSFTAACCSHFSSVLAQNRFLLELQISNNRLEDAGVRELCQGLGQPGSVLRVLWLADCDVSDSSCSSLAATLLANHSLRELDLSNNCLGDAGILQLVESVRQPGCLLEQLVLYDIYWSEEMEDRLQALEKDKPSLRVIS

binding result: binds
B1: pyronin-conjugated bovine Rnase A (enzyme, UniProt P61823 27-150, looked up)
chain: KETAAAKFERQHMDSSTSAASSSNYCNQMMKSRNLTKDRCKPVNTFVHESLADVQAVCSQKNVACKNGQTNCYQSYSTMSITDCRETGSSKYPNCAYKTTQANKHIIVACEGNPYVPVHFDASV
modifications: lysines conjugated to the fluorinated pyronin from bromopyronin 5; 0.3-0.6 fluorophores per protein
